# In the DeepSol protein solubility set:
# Assay: soluble on expression in E. coli; label from the status in PepcDB or PDB records
row,Sequence,soluble on expression in E. coli
1,AHHHHHHGSKPKVFITRAIPENGINMLEEEFEVEVWEEEREIPREKLLEKVKDVDALVTMLSERIDQEVFENAPRLRIVANYAVGYDNIDVEEATRRGIYVTNTPDVLTNATADHAFALLLATARHVVKGDKFVRSGEWKRKGIAWHPKWFLGYELYGKTIGIVGFGRIGQAIARRAKGFNMRILYYSRTRKSQAEKELGAEYRPLEEVLKESDFVILAVPLTKETMYMINEERLKLMKPTAILVNIARGKVVDTKALIKALKEGWIAGAGLDVFEEEPYYNEELFSLDNVVLTPHIGSATFEAREAMAELVARNLIAFKRGEIPPTLVNKEVIKIRKPGFNEQ,not soluble
2,AHHHHHHGSNKRFPFPVGEPDFIQGDEAIARAAILAGCRFYAGYPITPASEIFEAMALYMPLVDGVVIQMEDEIASIAAAIGASWAGAKAMTATSGPGFSLMQENIGYAVMTETPVVIVDVQRSGPSTGQPTLPAQGDIMQAIWGTHGDHSLIVLSPSTVQEAFDFTIRAFNLSEKYRTPVILLTDAEVGHMRERVYIPNPDEIEIINRKLPRNEEEAKLPFGDPHGDGVPPMPIFGKGYRTYVTGLTHDEKGRPRTVDREVHERLIKRIVEKIEKNKKDIFTYETYELEDAEIGVVATGIVARSALRAVKMLREEGIKAGLLKIETIWPFDFELIERIAERVDKLYVPEMNLGQLYHLIKEGANGKAEVKLISKIGGEVHTPMEIFEFIRREFK,soluble
3,AHHHHHHGSPCYNLKNKVAIVTGGGQGIGAAIAQLFAENGAKVVLAEIDEEAGLEREAMLRERGLDVTFIKTDVADEESVKNMVKKTVELYGGVDILVNNAAIMSVKSIFERTLEEWERVIRVNLTGPYICSRYAAEEMIKRGGGVIINIASTRALMSEPDTEPYSASKGGLLALTHSLAISLAKYRIRVVAVSPGWIETSRWKKSKLRSEPKLRPIDHEQHPAGRVGDPMDIAHICAFLADNEKAGFITGVNFVVDGGMTVKMIYAD,not soluble
4,AHHHHHHGSPDVYEPIMGAFSLARRLWKMIVEKKGLPTGDDVASLLENLGFERVCTGSGLAVFRNRFVIALLIPRENMIVVDFLSSSGELSDALELIAYYDKEIECYVVEILPSNELEYEENLGIEPVIIDGKTFELRSYPVLGDFKQGKDKVVLKIDREVYELWKESGKLDVCPVCGGHLRWKQGKALCTECGIEVVVDEEH,soluble
5,AIAASGKRKGLSFDDKKTRLLELFNETCDFYTLKELEKIAPKLKGIITQSVKDVLQSLVDDDLVNSDKCGVQTIYWCLPSEAVAKRQRRLDALQQQLAEKRQKLTALQRQLVQVQAGREDSVERTAVLERLAACEAAWRERQRTLESYLECDPDVLAQRETETKTLIEQANRWTDNLYVIRSYVQRNLGVDLDLFDQQFELKPALQYLE,soluble
6,AIAHAASFRDCKAWQSDGLPLSSSSNEACKLYDAILSQYVTWRNDETLGGIEGCITSIKAADPDFVMGHVISTGLELVGTGSSVLRDERLASAVRRTVELADTQQLTSREKNHVKAVQLFSKGSVHRNLTFMFNG,soluble
7,AIANSLVRRSAQQLSLWRTYCIKHNASEAASPGRNAGRPNYEEFIGRHQRQAQCSIVVQVSSEKSYEELYNYCSSFGSIMGAHHYCVRQDETLHYILLEYATSDEAAAAIGAGVTNGELSGVPVRSPFLWFRAAGGGRRSPKLVANTAPALLSLDGTRQVDQRHLLGLLRGAADIEEQVQQLYEHTRLNELGIRMRFLAALQVQQAIAGMFPAAQAQPFGSSVNGFGRMGCDLDLILRFDSDMGAKIPLEAAVPSRLVYHTKENLSNGRSQTQRHMECFGDMLHLFLPGVCHVRRILQARVPIIKYHHEHLDLEVDLSMSNLTGFYMSELLYMFGEMDPRVRPLTFTIRRWAQTCGLTNPSPGRWISNFSLTCLVMFFLQQLRQPILPTIGALAKAAEPGDSRVTEDGINCTFTRNVDRLGFRSRNQSSLSELLLQFFEFYSQFDFHNRAISLNEGKPLSKPDHSAMYIVNPLEQLLNVSKNVSLEECERLRIEVRNAAWVLESEVENASVPEGDGQELSCGLLNLFKHPEKAVIRPNMFFKPRMVEVSDLFEQKEAGATSSSTPPTPAITYKSASVRQQVQSIKAATRSELKQLRGSGSSVPTSSPNNRRRS,soluble
8,AIAYTFDTTDHKSPCCNFQWYIFRKQGESRIITCELFGVIVSLENRWDWLEFMIDDSLQLTAFRCPKRDKLGMETLLQLGDVAQVTGNWKLSNGAFLNATKIAIHNNPDVECKYWLQQIQKYKSKVCELEIPSDWIRRQQRAHNLKTDAVLSFSAQVSTAAATCWKLWKKHFNQGGKISLQRLWEVIQRENCPKMQELSSCRRNQIVQLLIHLGYLIPLSKEPETYVLLIDDILDKQVMQIFNQNIASKTLSLREVAYRLEEYFHVEEISLERVEESILRLAYKEKVEQV,soluble
9,AIIWRRAANLVLLDETGRRVDDLAFRSERADLAVIAGEGAERAVPEALEILSAARPILNRVRGLVRMGERRWDIVLDRGQRVLLPVEDPVAAVERMIALDEAEDLLDRDVISVDLR,not soluble
10,AKIIFIEHNGTRHEVEAKPGLTVMEAARDNGVPGIDADCGGACACSTCHAYVDPAWVDKLPKALPTETDMIDFAYEPNPATSRLTCQIKVTSLLDGLVVHLPEKQI,soluble
11,AKKLKKEYLDWYNQILEFSNLSNNSVKIDTPFKDNSLDNLKIYALYDQSRDMITLTDDGYTIFGLENNGVSINKFKKRKKIFEEHLSAYGIKYNDKTHEIFVQTNFKNFNKSKHNLLQCLIFVNDMYLLSNPKSQNIFTEDVANKLDEHNIYYGRDIPIIGSSGVVHNFDFFISAKKNQKEKFINVFSNPNNSMIIKSKITDAMQAKKIKRHRQNEFIFILNDSKKEINEHNKNLLHENYISTIDYSELDEKIGLL,not soluble
12,AKLGAVYTEGGFVEGVNKKLGLLGDSVDIFKGIPFAAPTKALENPQPHPGWQGTLKAKNFKKRCLQATITQDSTYGDEDCLYLNIWVPQGRKQVSRDLPVMIWIYGGAFLMGSGHGANFLNNYLYDGEEIATRGNVIVVTFNYRVGPLGFLSTGDANLPGNYGLRDQHMAIAWVKRNIAAFGGDPDNITLFGESAGGASVSLQTLSPYNKGLIRRAISQSGVALSPWVIQKNPLFWAKKVAEKVGCPVGDAARMAQCLKVTDPRALTLAYKVPLAGLEYPMLHYVGFVPVIDGDFIPDDPINLYANAADIDYIAGTNNMDGHIFASIDMPAINKGNKKVTEEDFYKLVSEFTITKGLRGAKTTFDVYTESWAQDPSQENKKKTVVDFETDVLFLVPTEIALAQHRANAKSAKTYAYLFSHPSRMPVYPKWVGADHADDIQYVFGKPFATPTGYRPQDRTVSKAMIAYWTNFAKTGDPNMGDSAVPTHWEPYTTENSGYLEITKKMGSSSMKRSLRTNFLRYWTLTYLALPTVT,soluble
13,AKTKAAVSMEGFSWGNYINSNSFIAAPVTCFKHAPMGTCWGDISENVRVEVPNTDCSLPTKVFWIAGIVKLAGYNALLRYEGFENDSGLDFWCNICGSDIHPVGWCAASGKPLVPPRTIQHKYTNWKAFLVKRLTGAKTLPPDFSQKVSESMQYPFKPCMRVEVVDKRHLCRTRVAVVESVIGGRLRLVYEESEDRTDDFWCHMHSPLIHHIGWSRSIGHRFKRSDITKKQDGHFDTPPHLFAKVKEVDQSGEWFKEGMKLEAIDPLNLSTICVATIRKVLADGFLMIGIDGSEAADGSDWFCYHATSPSIFPVGFCEINMIELTPPRGYTKLPFKWFDYLRETGSIAAPVKLFNKDVPNHGFRVGMKLEAVDLMEPRLICVATVTRIIHRLLRIHFDGWEEEYDQWVDCESPDLYPVGWCQLTGYQLQPPASQSSR,soluble
14,ALGAPDGVTQGASLSRSIQPLLDAHPGKTGLHVLEKGEESLLARAWLADHATETIDVQYFIWSTDNIGILASEALLRAAERGVRVRVLVDDLLIDAPPESLLALARHPRIDIRIYNPTMTVGTSKVKRLGNVVTGFRSVNQRMHDKTALFDGVVGITGGRNMADEYYDYDQEYTFRDRDILMLGPAVAEAEASFARFWESPLAVPVEKLLKKGMKKMT,not soluble
15,AMATAPRPLREQYLHFQPISTRWHDNDIYGHVNNVTYYAFFDTAVNTYLIERGGLDIQGGEVIGLVVSSSCDYFAPVAFPQRIEMGLRVARLGNSSVQYELALFLEGQREACAAGRFVHVFVERRSSRPVAIPQELRDALAALQSSAQ,soluble
